These are literature values, as cited in PMC2628467.

A word on the Kd: it is a measure of binding affinity in units of concentration.

The data set has as its target RNase H folding intermediate mimic (Escherichia coli) (UniProt P0A7Y4).

For the substance “RNase H folding intermediate mimic (from UniProt P0A7Y4)”, the Kd is 500 nM.
